Experimental data taken from US20240000932A1 (BOOSTIMMUNE, published 2024).

Molecular target: T1, recombinant human TCTP (translationally controlled tumor protein) (human, UniProt P13693 1-172)
T1 construct: The ELISA is only said to be 'on TCTP', and the screening beads were coated with human TCTP; also called HRF; Tpt1
T1 sequence: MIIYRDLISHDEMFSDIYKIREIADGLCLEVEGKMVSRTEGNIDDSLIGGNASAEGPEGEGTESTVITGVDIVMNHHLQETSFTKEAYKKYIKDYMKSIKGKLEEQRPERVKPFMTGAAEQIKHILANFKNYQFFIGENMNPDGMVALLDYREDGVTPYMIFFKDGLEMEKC
Experiment: ELISA on TCTP, after single B cell screening with human TCTP coated beads
Description: Transgenic mice for preparing fully human antibodies (CAMOUSE®) were immunized by using a recombinant human TCTP (SEQ ID NO: 36), and standard single B cell screening method was used. Single viable B cell arrays were prepared by applying splenocyte of immunized mice to microarray chips. TCTP-specific antibody secreting single cells were screened on the microarray chip using human TCTP coated beads and then recovered by micromanipulation, mRNA were recovered from the single cells, and cDNA sequences encoding the variable regions of the IgG heavy (VH) and light (VL) chains were amplified by RT-PCR. The recombinant antibodies containing the VH and VL sequences are purified and tested by ELISA on TCTP. As a result, antibody 1-2-4 was obtained. The variable region sequences of antibody 1-2-4 are as follows. The antibody sequences for 1-2-4 were obtained from CAMOUSE® in cooperation with CAMAB (China) and GenScript (China).

B1: anti-TCTP human monoclonal antibody 1-2-4 (antibody, V domains shown)
VH: QVQLVQSGAEVKKPGASVKVSCKASGYTFFSYAMHWVRQAPGQRLEWMGWINAGNGNTKYSQKFQDRVTITRDTSATTAYMELSSLRSEDTAVYYCASWVFDYWGQGTPVTVSS
VL: DIVMTQTPLSSLVTLGQPASISCRSSQSLVHRDGNTYLSWLQQRPGQPPRLLIYKISNRFFGVPDRFSGSGAGTDFTLKISRVEAEDVGVYYCMQATQFPHTFGQGTKLEIK
  binding result: binds
